Experimental data taken from paper PMC7988490, “Molecular insights into replication initiation in a multipartite genome harboring bacterium Deinococcus radiodurans” (The Journal of Biological Chemistry, 2020).

What was measured:
[1] = biological target: T1, drDnaB (DnaB) (Deinococcus radiodurans R1 (ATCC13939)) (UniProt Q9RWW6); assay: EMSA; details: nonspecific, EMSA: 50 mM Tris-HCl pH 8.0, 75 mM KCl, 5 mM MgSO4, 0.1 mM DTT, ~30 nM 32P-DNA, 37 C 15 min
T1 sequence: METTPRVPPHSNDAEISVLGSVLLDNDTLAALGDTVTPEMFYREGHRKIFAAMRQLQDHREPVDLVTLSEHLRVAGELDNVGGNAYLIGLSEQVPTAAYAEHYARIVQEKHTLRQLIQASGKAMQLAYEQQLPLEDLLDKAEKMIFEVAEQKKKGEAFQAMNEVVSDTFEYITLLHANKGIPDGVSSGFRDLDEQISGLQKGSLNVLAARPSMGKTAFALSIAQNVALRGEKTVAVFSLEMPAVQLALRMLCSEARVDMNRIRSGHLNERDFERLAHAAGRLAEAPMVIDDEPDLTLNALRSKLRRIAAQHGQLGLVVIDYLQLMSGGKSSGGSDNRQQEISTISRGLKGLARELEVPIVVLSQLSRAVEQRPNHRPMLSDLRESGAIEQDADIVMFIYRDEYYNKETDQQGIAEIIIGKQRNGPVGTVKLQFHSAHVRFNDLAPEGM

[2] = biological target: T2, recombinant drDnaA, purified (D. radiodurans, UniProt Q9RYE7 1-466); assay: SPR; 20 μM PprA immobilised on a bare gold sensor chip by EDC-NHS at 20 °C (~200 response units); 4–20 μM drDnaA or drDnaB incubated with 1 mM ATP and 1 mM MgCl2 in the mobile phase; 20 mM Tris pH 7.6; Autolab Esprit; details: both partners purified
T2 construct: DnaA of Deinococcus radiodurans, DR_0002
T2 sequence (looked up): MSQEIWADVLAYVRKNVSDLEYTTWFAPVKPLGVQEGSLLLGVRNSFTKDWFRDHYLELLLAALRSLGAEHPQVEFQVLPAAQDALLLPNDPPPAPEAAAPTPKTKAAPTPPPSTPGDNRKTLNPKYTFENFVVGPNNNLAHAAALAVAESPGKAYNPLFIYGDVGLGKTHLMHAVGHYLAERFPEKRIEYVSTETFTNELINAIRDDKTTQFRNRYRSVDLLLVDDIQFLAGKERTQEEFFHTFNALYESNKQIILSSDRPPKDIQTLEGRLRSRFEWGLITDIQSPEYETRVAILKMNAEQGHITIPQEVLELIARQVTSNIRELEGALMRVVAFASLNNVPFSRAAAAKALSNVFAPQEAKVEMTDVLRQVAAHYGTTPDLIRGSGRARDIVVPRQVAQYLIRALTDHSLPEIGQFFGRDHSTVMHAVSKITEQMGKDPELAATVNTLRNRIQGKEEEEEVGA

[3] = biological target: T3, recombinant drDnaB, purified (D. radiodurans, UniProt Q9RWW6 1-448); assay: as above; details: both partners purified
T3 construct: DnaB of Deinococcus radiodurans, DR_0549; the drdnaB gene was PCR amplified from genomic DNA of D. radiodurans R1 and cloned in pET28a(+) at BamHI and EcoRI
T3 sequence (looked up): T1 sequence

drDnaB (DnaB) [4] = biological target: T4, drDnaB (DnaB) (Deinococcus radiodurans R1 (ATCC13939), UniProt Q9RWW6 1-448); assay: EMSA; ATPgS; EMSA: 50 mM Tris-HCl pH 8.0, 75 mM KCl, 5 mM MgSO4, 0.1 mM DTT, +/- 1 mM ATP, ~30 nM 32P-DNA, 37 C 15 min; details: protein: recombinant; tags: N-terminal 6xHis (pET28a); chain copies: 6; label: 32P 5' end
T4 sequence: T1 sequence

drDnaB (DnaB) [5] = biological target: T4, drDnaB (DnaB); assay: EMSA; no ATP; EMSA: 50 mM Tris-HCl pH 8.0, 75 mM KCl, 5 mM MgSO4, 0.1 mM DTT, +/- 1 mM ATP, ~30 nM 32P-DNA, 37 C 15 min; details: protein: recombinant; tags: N-terminal 6xHis (pET28a); chain copies: 6; label: 32P 5' end
drDnaB (DnaB) [6] = biological target: T4, drDnaB (DnaB); assay: EMSA; 1 mM ATP; EMSA: 50 mM Tris-HCl pH 8.0, 75 mM KCl, 5 mM MgSO4, 0.1 mM DTT, +/- 1 mM ATP, ~30 nM 32P-DNA, 37 C 15 min; details: protein: recombinant; tags: N-terminal 6xHis (pET28a); chain copies: 6; label: 32P 5' end

oriCI 500 bp (13 DnaA boxes)
Kd ([1]; 1 mM ATP): 8230 nM | Kd ([1]; no ATP, +/- 1 mM ATP): 8890 nM

B1: recombinant PprA (histidine-tagged PprA, His-PprA), purified (natural protein, D. radiodurans, UniProt O32504 1-300, looked up)
chain: MLPLAFLICSGHNKGSMARAKAKDQTDGIYAAFDTLMSTAGVDSQIAALAASEADAGTLDAALTQSLQEAQGRWGLGLHHLRHEARLTDDGDIEILTDGRPSARVSEGFGALAQAYAPMQALDERGLSQWAALGEGYRAPGDLPLAQLKVLIEHARDFETDWSAGRGETFQRVWRKGDTLFVEVARPASAEAALSDAAWDVIASIKDRAFQRELMRRSEKDGMLGALLGARHAGAKANLAQLPEAHFTVQAFVQTLSGAAARNAEEYRAALKTAAAALEEYQGVTTRQLSEVLRHGLRES
Kd [2]: 541 nM | Kd [3]: 971 nM

GGAATTCCAATGAACCGCAAAACCGCAAAAACCGTACCGA (ssDNA) [ssDNA oligo 99F (40 nt)]
Kd (drDnaB (DnaB) [4]): 1020 ± 60 nM | Kd (drDnaB (DnaB) [5]): 3110 ± 110 nM | Kd (drDnaB (DnaB) [6]): 1420 ± 50 nM
